Results published in paper PMC6628251, “Structural and Functional Impact of Seven Missense Variants of Phenylalanine Hydroxylase” (Genes, 2019).
Where “and” joins values, the source holds several entries; their conditions need not be identical. Equal entries are not always repeated.

Columns and labels:
[1] = target: the molecule itself; experiment: SEC; MBP-PAH expressed in E. coli XL1 blue without GroEL/ES; MBPTrap HP affinity, then Superdex 200 HR 10/30; 200 mM NaCl, 20 mM HEPES, pH 7.0; percent of oligomers, tetramers and dimers, mean of three column purifications
[2] = target: the molecule itself; experiment: SEC; MBP-PAH co-expressed with GroEL/ES (pGroELS) in E. coli XL1 blue; MBPTrap HP affinity, then Superdex 200 HR 10/30; 200 mM NaCl, 20 mM HEPES, pH 7.0; percent of oligomers, tetramers and dimers, mean of three column purifications
[3] = target: the molecule itself; experiment: SEC; MBP-PAH expressed in E. coli XL1 blue without GroEL/ES; MBPTrap HP affinity, then Superdex 200 HR 10/30; 200 mM NaCl, 20 mM HEPES, pH 7.0; percent of oligomers, tetramers and dimers, mean of three column purifications; remark: listed apart in the source

| Protein | stoichiometry N [1] | percent of purified protein as dimers [2] [%] | percent of purified protein as tetramers [2] [%] | percent of purified protein as dimers [3] [%] | percent of purified protein as tetramers [3] [%] |
| --- | --- | --- | --- | --- | --- |
| human wild type phenylalanine hydroxylase, fusion with maltose-binding protein (enzyme, UniProt P00439 1-452, looked up, phenylalanine hydroxylase (PAH), human, WT cDNA in the pMAL-MBP-c2 vector; also called WT PAH; PAH-MBP fusion protein) MSTAVLENPGLGRKLSDFGQETSYIEDNCNQNGAISLIFSLKEEVGALAKVLRLFEENDVNLTHIESRPSRLKKDEYEFFTHLDKRSLPALTNIIKILRHDIGATVHELSRDKKKDTVPWFPRTIQELDRFANQILSYGAELDADHPGFKDPVYRARRKQFADIAYNYRHGQPIPRVEYMEEEKKTWGTVFKTLKSLYKTHACYEYNHIFPLLEKYCGFHEDNIPQLEDVSQFLQTCTGFRLRPVAGLLSSRDFLGGLAFRVFHCTQYIRHGSKPMYTPEPDICHELLGHVPLFSDRSFAQFSQEIGLASLGAPDEYIEKLATIYWFTVEFGLCKQGDSIKAYGAGLLSSFGELQYCLSEKPKLLPLELEKTAIQNYTVTEFQPLYYVAESFNDAKEKVRNFAATIPRPFSVRYDPYTQRIEVLDNTQQLKILADSINSEIGILCSALQKIK | 4 and 2 | – | – | – | – |
| human phenylalanine hydroxylase variant p.Gly239Ala, fusion with maltose-binding protein (enzyme, UniProt P00439 1-452, looked up, phenylalanine hydroxylase (PAH), human, missense variant from Czech PKU/HPA patients, made by site-directed mutagenesis of pMAL-PAH; Same construct as m1 with one substitution; also called c.716G>C) MSTAVLENPGLGRKLSDFGQETSYIEDNCNQNGAISLIFSLKEEVGALAKVLRLFEENDVNLTHIESRPSRLKKDEYEFFTHLDKRSLPALTNIIKILRHDIGATVHELSRDKKKDTVPWFPRTIQELDRFANQILSYGAELDADHPGFKDPVYRARRKQFADIAYNYRHGQPIPRVEYMEEEKKTWGTVFKTLKSLYKTHACYEYNHIFPLLEKYCGFHEDNIPQLEDVSQFLQTCTAFRLRPVAGLLSSRDFLGGLAFRVFHCTQYIRHGSKPMYTPEPDICHELLGHVPLFSDRSFAQFSQEIGLASLGAPDEYIEKLATIYWFTVEFGLCKQGDSIKAYGAGLLSSFGELQYCLSEKPKLLPLELEKTAIQNYTVTEFQPLYYVAESFNDAKEKVRNFAATIPRPFSVRYDPYTQRIEVLDNTQQLKILADSINSEIGILCSALQKIK | – | 14 | 5.5 | 32.8 | – |
| human phenylalanine hydroxylase variant p.Asn167Tyr, fusion with maltose-binding protein (enzyme, UniProt P00439 1-452, looked up, phenylalanine hydroxylase (PAH), human, missense variant from Czech PKU/HPA patients, made by site-directed mutagenesis of pMAL-PAH; Same construct as m1 with one substitution; also called c.499A>T) MSTAVLENPGLGRKLSDFGQETSYIEDNCNQNGAISLIFSLKEEVGALAKVLRLFEENDVNLTHIESRPSRLKKDEYEFFTHLDKRSLPALTNIIKILRHDIGATVHELSRDKKKDTVPWFPRTIQELDRFANQILSYGAELDADHPGFKDPVYRARRKQFADIAYYYRHGQPIPRVEYMEEEKKTWGTVFKTLKSLYKTHACYEYNHIFPLLEKYCGFHEDNIPQLEDVSQFLQTCTGFRLRPVAGLLSSRDFLGGLAFRVFHCTQYIRHGSKPMYTPEPDICHELLGHVPLFSDRSFAQFSQEIGLASLGAPDEYIEKLATIYWFTVEFGLCKQGDSIKAYGAGLLSSFGELQYCLSEKPKLLPLELEKTAIQNYTVTEFQPLYYVAESFNDAKEKVRNFAATIPRPFSVRYDPYTQRIEVLDNTQQLKILADSINSEIGILCSALQKIK | – | 8.5 | 38.8 | 20.2 | 33.2 |
| human phenylalanine hydroxylase variant p.Thr200Asn, fusion with maltose-binding protein (enzyme, UniProt P00439 1-452, looked up, phenylalanine hydroxylase (PAH), human, missense variant from Czech PKU/HPA patients, made by site-directed mutagenesis of pMAL-PAH; Same construct as m1 with one substitution; also called c.599C>A) MSTAVLENPGLGRKLSDFGQETSYIEDNCNQNGAISLIFSLKEEVGALAKVLRLFEENDVNLTHIESRPSRLKKDEYEFFTHLDKRSLPALTNIIKILRHDIGATVHELSRDKKKDTVPWFPRTIQELDRFANQILSYGAELDADHPGFKDPVYRARRKQFADIAYNYRHGQPIPRVEYMEEEKKTWGTVFKTLKSLYKNHACYEYNHIFPLLEKYCGFHEDNIPQLEDVSQFLQTCTGFRLRPVAGLLSSRDFLGGLAFRVFHCTQYIRHGSKPMYTPEPDICHELLGHVPLFSDRSFAQFSQEIGLASLGAPDEYIEKLATIYWFTVEFGLCKQGDSIKAYGAGLLSSFGELQYCLSEKPKLLPLELEKTAIQNYTVTEFQPLYYVAESFNDAKEKVRNFAATIPRPFSVRYDPYTQRIEVLDNTQQLKILADSINSEIGILCSALQKIK | – | 4.5 | 43.8 | 10.5 | 40.5 |
| human phenylalanine hydroxylase variant p.Phe263Ser, fusion with maltose-binding protein (enzyme, UniProt P00439 1-452, looked up, phenylalanine hydroxylase (PAH), human, missense variant from Czech PKU/HPA patients, made by site-directed mutagenesis of pMAL-PAH; Same construct as m1 with one substitution; also called c.788T>C) MSTAVLENPGLGRKLSDFGQETSYIEDNCNQNGAISLIFSLKEEVGALAKVLRLFEENDVNLTHIESRPSRLKKDEYEFFTHLDKRSLPALTNIIKILRHDIGATVHELSRDKKKDTVPWFPRTIQELDRFANQILSYGAELDADHPGFKDPVYRARRKQFADIAYNYRHGQPIPRVEYMEEEKKTWGTVFKTLKSLYKTHACYEYNHIFPLLEKYCGFHEDNIPQLEDVSQFLQTCTGFRLRPVAGLLSSRDFLGGLAFRVSHCTQYIRHGSKPMYTPEPDICHELLGHVPLFSDRSFAQFSQEIGLASLGAPDEYIEKLATIYWFTVEFGLCKQGDSIKAYGAGLLSSFGELQYCLSEKPKLLPLELEKTAIQNYTVTEFQPLYYVAESFNDAKEKVRNFAATIPRPFSVRYDPYTQRIEVLDNTQQLKILADSINSEIGILCSALQKIK | – | 13.6 | 11 | 27.1 | – |
| human phenylalanine hydroxylase variant p.Ile406Met, fusion with maltose-binding protein (enzyme, UniProt P00439 1-452, looked up, phenylalanine hydroxylase (PAH), human, missense variant from Czech PKU/HPA patients, made by site-directed mutagenesis of pMAL-PAH; Same construct as m1 with one substitution; also called c.1218A>G) MSTAVLENPGLGRKLSDFGQETSYIEDNCNQNGAISLIFSLKEEVGALAKVLRLFEENDVNLTHIESRPSRLKKDEYEFFTHLDKRSLPALTNIIKILRHDIGATVHELSRDKKKDTVPWFPRTIQELDRFANQILSYGAELDADHPGFKDPVYRARRKQFADIAYNYRHGQPIPRVEYMEEEKKTWGTVFKTLKSLYKTHACYEYNHIFPLLEKYCGFHEDNIPQLEDVSQFLQTCTGFRLRPVAGLLSSRDFLGGLAFRVFHCTQYIRHGSKPMYTPEPDICHELLGHVPLFSDRSFAQFSQEIGLASLGAPDEYIEKLATIYWFTVEFGLCKQGDSIKAYGAGLLSSFGELQYCLSEKPKLLPLELEKTAIQNYTVTEFQPLYYVAESFNDAKEKVRNFAATMPRPFSVRYDPYTQRIEVLDNTQQLKILADSINSEIGILCSALQKIK | – | 6.9 | 37.7 | 15.6 | 34.2 |
| human phenylalanine hydroxylase variant p.Ala342Pro, fusion with maltose-binding protein (enzyme, UniProt P00439 1-452, looked up, phenylalanine hydroxylase (PAH), human, missense variant from Czech PKU/HPA patients, made by site-directed mutagenesis of pMAL-PAH; Same construct as m1 with one substitution; also called c.1024G>C) MSTAVLENPGLGRKLSDFGQETSYIEDNCNQNGAISLIFSLKEEVGALAKVLRLFEENDVNLTHIESRPSRLKKDEYEFFTHLDKRSLPALTNIIKILRHDIGATVHELSRDKKKDTVPWFPRTIQELDRFANQILSYGAELDADHPGFKDPVYRARRKQFADIAYNYRHGQPIPRVEYMEEEKKTWGTVFKTLKSLYKTHACYEYNHIFPLLEKYCGFHEDNIPQLEDVSQFLQTCTGFRLRPVAGLLSSRDFLGGLAFRVFHCTQYIRHGSKPMYTPEPDICHELLGHVPLFSDRSFAQFSQEIGLASLGAPDEYIEKLATIYWFTVEFGLCKQGDSIKPYGAGLLSSFGELQYCLSEKPKLLPLELEKTAIQNYTVTEFQPLYYVAESFNDAKEKVRNFAATIPRPFSVRYDPYTQRIEVLDNTQQLKILADSINSEIGILCSALQKIK | – | 15.5 | 3.8 | 22 | – |
| human phenylalanine hydroxylase variant p.Asp229Gly, fusion with maltose-binding protein (enzyme, UniProt P00439 1-452, looked up, phenylalanine hydroxylase (PAH), human, missense variant from Czech PKU/HPA patients, made by site-directed mutagenesis of pMAL-PAH; Same construct as m1 with one substitution; also called c.686A>G) MSTAVLENPGLGRKLSDFGQETSYIEDNCNQNGAISLIFSLKEEVGALAKVLRLFEENDVNLTHIESRPSRLKKDEYEFFTHLDKRSLPALTNIIKILRHDIGATVHELSRDKKKDTVPWFPRTIQELDRFANQILSYGAELDADHPGFKDPVYRARRKQFADIAYNYRHGQPIPRVEYMEEEKKTWGTVFKTLKSLYKTHACYEYNHIFPLLEKYCGFHEDNIPQLEGVSQFLQTCTGFRLRPVAGLLSSRDFLGGLAFRVFHCTQYIRHGSKPMYTPEPDICHELLGHVPLFSDRSFAQFSQEIGLASLGAPDEYIEKLATIYWFTVEFGLCKQGDSIKAYGAGLLSSFGELQYCLSEKPKLLPLELEKTAIQNYTVTEFQPLYYVAESFNDAKEKVRNFAATIPRPFSVRYDPYTQRIEVLDNTQQLKILADSINSEIGILCSALQKIK | – | 10.1 | 10.2 | 19.3 | – |
